Results published in the supplement of paper PMC12042874.
± gives the uncertainty stated by the source.

Test: amyloid nucleation score (Sup35N fusion, yeast selection) (log enrichment); library NNK1; higher = more nucleation; inactive = no reads after selection
In short: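 The nucleation score is the DiMSum log enrichment of output over input reads, centred on the mode score of non-aggregating sequences. Only sequences with 100 or more input reads were scored, using Illumina sequencing of input and output plasmid inserts. Psi-negative yeast expressing Sup35N fused to peptides of 20 random codons were induced 24 hours with 100 μM copper sulfate and grown 7 days at 30°C on medium lacking adenine and uracil.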

Substance	amyloid nucleation score
LCGHF	4.35 ± 0.051
LCITQKYRFSLHNLHQPTDW	1.93 ± 0.45
LCLFGSWLKKLKYNRFLFVG	-1.18 ± 1.7
LCSHAIFCSSCGRFVLMEAC	inactive
LCSIN	-0.876 ± 0.99
LDAKVFRVALAYYLPPGP	0.789 ± 0.53
LDETIQSNRDTHLCQFA	-0.29 ± 0.56
LDFIKWAYNWCRLIVGIGGC	-0.476 ± 1.9
LDGFSVNLCWFRHTERCVAC	-0.224 ± 0.78
LDQKTFWLSVPVSWQIPADM	0.477 ± 0.61
LDRSTSSLIMSSCLMYRESS	1.33 ± 0.29
LDSARMGLFITGMV	-1.06 ± 0.87
LDTGVMMEIKICIHYRDCYD	1.84 ± 0.21
LDVCCEYPSKSSVMEWQVWL	1.02 ± 0.54
LEASSIISSRTPG	-0.93 ± 2.4
LEFRPRFSSISYHMIMFVGH	inactive
LEGITELWRVMSYLMMTMVR	-0.457 ± 1.1
LEHYRVVLLG	-0.535 ± 0.43
LEILL	0.145 ± 0.45
LEKINQVSGLDFRRIEFEPS	-0.172 ± 1.2
LELLMVKILSSLYDIMIFCC	inactive
LEMDRICMMLSDSRFKLTLV	-0.025 ± 0.21
LFAIKYCDVSD	0.286 ± 0.43
LFETI	0.746 ± 0.71
LFFHL	0.83 ± 0.79

Substance	amyloid nucleation score
LFFLLLNHRAVVVLLWCHFT	-1.19 ± 0.91
LFGSEVTWYLTSGCDKPFLH	0.087 ± 0.48
LFIVPRRGARRYRVVITKSV	0.003 ± 0.46
LFIVTFSYFLSPRLVQWYAL	0.516 ± 0.67
LFLECNDTLHRATTGVNLFK	0.206 ± 1.6
LFLHPMYMMKAASASGITVV	-0.1 ± 0.57
LFLIV	-0.08 ± 0.24
LFNYPS	-0.948 ± 1.1
LFPIDSVNGTDWMTRMRDKI	inactive
LFREQW	0.228 ± 0.85
LFRFCTIILLAYGLSLCNDI	inactive
LFRWEGVATACSCGDDASFA	-0.668 ± 1.1
LFSCWQSGRVNKYYVDGSMG	-0.206 ± 0.97
LFSYMYLEVDMSESMIRYL	1.02 ± 0.31
LFTCVQFIMGVDDRWKRARS	2.19 ± 0.26
LFTRIFSLSMYVPNCFRYAY	1.02 ± 0.39
LFYCRALRYFASHLDASNMH	-1.09 ± 0.84
LGCSFR	-0.065 ± 1.4
LGGFSMRVNEVVLPGVRFGD	-0.037 ± 1.7
LGHGHIDGQYKGYRVKWTYD	-0.644 ± 0.35
LGHIILSAFFYRSFNLEVSL	inactive
LGLGDGLLVRFNKFCGLMGR	-0.153 ± 1.2
LGLRFTCRLFGCIYTRASIM	-0.735 ± 1.7
LGMIADYQKQKMMSSGTSLR	0.289 ± 0.69
LGPNW	-0.356 ± 0.53

Substance	amyloid nucleation score
LGPVLFKLLRETCAQSYKVM	-0.005 ± 0.67
LGPYQTCR	1.58 ± 0.72
LGQEL	0.416 ± 0.39
LGRKFT	2.05 ± 0.41
LGSDDLLKVSFFFVSLGS	-0.087 ± 1.2
LGSGQGVNLSALPRFEYACR	0.527 ± 0.44
LGSMSPVGLTKYLGDGEEVV	-0.036 ± 0.55
LGSWRFMLAVI	0.375 ± 0.48
LGTLMSPPTRTDFMHPRYRV	1.51 ± 0.48
LGYKSGVFLWGFRFHP	-1.35 ± 2.1
LHGLNF	0.843 ± 0.74
LHGPVFYKFACVVASPWGSI	-0.235 ± 0.41
LHIAMTVYC	2.42 ± 0.13
LHLPYGCTASAICQFECSGW	3 ± 0.15
LHNERRSVISTPYRQSEAGL	0.707 ± 0.43
LHSQKGILSLSSPI	-0.223 ± 0.32
LICPSLHPRAVGECSSVCWR	0.157 ± 0.19
LIENTGLHRENISRAPGGR	-0.469 ± 0.83
LIHRA	-0.041 ± 0.32
LIIKEFITLLSPCWELLRIR	0.901 ± 0.9
LIINGD	0.609 ± 1.2
LIKGWSYPGVPCVGLLMDGK	0.27 ± 0.33
LIKKKSNSIYMI	-0.062 ± 0.3
LINMYSMDMTTDHAPAYKLD	-0.302 ± 0.47
LIQWENGTH	-0.672 ± 0.34

Substance	amyloid nucleation score
LIRNKIRR	-1.12 ± 0.93
LIWFVYMD	0.347 ± 0.55
LIWSHVLDGYSCEKPSNRMC	-0.662 ± 0.98
LKARQHFRNHHGMLVQKRWD	inactive
LKCFRLS	0.327 ± 0.55
LKEDISPSELHTQLC	0.81 ± 0.54
LKHDRSNR	0.345 ± 1.2
LKNGSDSILDARVYLGG	-0.221 ± 0.51
LKRVCNS	0.002 ± 0.63
LKTGGSPNLVANYMYDRCAG	0.581 ± 0.38
LKTRALASGWEAECADRGGV	-0.056 ± 0.64
LKVRLNESIICYAMRVKHIC	0.345 ± 0.36
LKYMYHYVSMKVFVLGISMR	0.005 ± 1.7
LLAFYSVTFVSRWILQCYML	-0.498 ± 0.36
LLAGYCQSYIQLELSNSEHV	-0.241 ± 0.84
LLDRRVGKLGLDCMLLDLCQ	0.752 ± 0.42
LLFSPIFLDSGPHTLWLYMF	0.491 ± 0.87
LLGASLNVKPESDFLLPAKR	0.175 ± 0.41
LLGIEFTSDLLPIPSISPNE	0.239 ± 0.63
LLKENWFNCSLWHDIVGISM	-0.596 ± 0.59
LLKWLVDAW	0.493 ± 0.25
LLLNTLLWSL	-1.83 ± 2.7
LLLSILRWDEDMMLNFW	1.21 ± 0.43
LLLTHNLVNADDSVDSMQHK	0.086 ± 0.24
LLMVREDRRRFRSFGS	0.773 ± 0.76

Substance	amyloid nucleation score
LLNEDYTGHSCDPEGEDTR	0.589 ± 0.52
LLNQFLTRSASYTRGTESID	0.295 ± 0.24
LLRLRISEIGSRLIKVWKSW	0.155 ± 0.35
LLRVAFLKRYFSTIFCVLLR	-0.716 ± 0.53
LLSMLRCYWVSRLFV	-0.079 ± 0.65
LLVNFSTSRLSLYMFIMIFS	-0.779 ± 0.39
LLWEPRKFFESNWLSIQSAK	-0.668 ± 1.7
LLYLCYIRCI	0.952 ± 0.65
LLYSERTIIPVDRYT	-0.686 ± 0.48
LMDIGPANEKFN	-1.18 ± 1.4
LMFKGEYCWLVIWQGLTWGV	0.278 ± 0.52
LMFLGWSNRKMTSHSIMTVL	0.293 ± 1
LMGNEL	-0.396 ± 0.4
LMIRILMVAQNSVLTVFW	-0.324 ± 0.4
LMLTARPVMFVLLCWWFRSS	0.246 ± 0.43
LMNCVAYAIVEVTCVSCMES	4.68 ± 0.082
LMRHYSHMFYIRHAVLLTNP	0.255 ± 0.36
LMSASNLNAVSKQCIRLRRC	1.48 ± 0.55
LMTPEKVNEGATDRLRLFRN	-0.323 ± 0.68
LNASGIVVCFYSSDNTCTYE	4.49 ± 0.089
LNCLFLFSISAFRVLASHIM	0.448 ± 0.42
LNDGTGDQ	-0.138 ± 0.37
LNFFVPA	-1.38 ± 2.4
LNHLVSPKALQN	0.017 ± 0.4
LNHRIYNLLHVILWVKQWMK	0.164 ± 1.5

Substance	amyloid nucleation score
LNICCEEYQDRYTTDNFLLL	0.583 ± 0.57
LNIGTW	0.185 ± 0.28
LNISMFHSNSSHTTEEVTHH	1.32 ± 0.19
LNNHETFFGFVDVSGSAIS	0.272 ± 0.26
LNNLWNLGLTGLQGGNMYKI	inactive
LNRHYFCVGIPYGPYSQRYL	0.51 ± 0.75
LNRSTDAFWNKIRTG	1.01 ± 0.49
LNRTRCLWL	0.877 ± 0.58
LNSDCCPNSFDKHFLSFLCM	0.433 ± 0.81
LNSVVTVKWVLKARSLVVRC	1.16 ± 0.88
LNTCLFISDTAVFIMASYMV	3.06 ± 0.45
LPDCINNVQNGYSKLSEGLS	0.792 ± 1
LPGDFYGSYRN	inactive
LPGFWPFMSDTPLGHQIVA	-1.07 ± 1.6
LPSVESLHRTTSCVYF	-0.561 ± 1.2
LPVHGMFWSVR	-0.157 ± 0.78
LPWGRTAFENFFVTMFFSKC	-0.994 ± 1.5
LQLWLMDGSSRGRWV	0.12 ± 0.64
LQSTFFFYGGCKRVWSMMYH	4.45 ± 0.12
LRAHGAYRYQWEACCHNLG	-0.138 ± 0.36
LRAWMSVASDNGLLMFCRNH	-0.324 ± 0.46
LRCFYEYGFHKRTKVDSIDT	inactive
LRCKMYSMWKTSYFTVMLGG	-0.261 ± 0.44
LRDTFPVLLAILCMNIINNC	-0.14 ± 0.29
LRFIRRYIESHITFVRKLLK	inactive

Substance	amyloid nucleation score
LRITNAPKLVYVSAQEVNSQ	1.47 ± 0.25
LRKWSERGPWP	0.048 ± 0.46
LRLMLCFMFYAWTALCKPRD	0.31 ± 0.23
LRRLEGLMSLGSFKFSPYGP	0.227 ± 1.2
LRSSEYWSLMEVDLVMDSLP	0.629 ± 0.97
LRSVSGCIKFAYGDSCMSLK	inactive
LRTARNMGYICSIVSFNNLN	5.13 ± 0.055
LRVRFKSWDLSITLGVQ	1.26 ± 0.9
LRWMESLRLNARSFKDTLLC	-0.33 ± 1.7
LSAEFGSMLRLLCH	inactive
LSAWPTIEEMVPAHMKTTHA	0.526 ± 0.54
LSCKSVVPLSNSWYAIVLRL	1.19 ± 0.29
LSCWTCNRFYRGGLLVCMYP	-0.713 ± 0.46
LSDLDIRKQLVYMRSIRVGT	-0.339 ± 0.94
LSDRVFSVTTQGPCDSIFLS	-0.792 ± 0.61
LSFNSTSPEIIRTVVMAWC	-1.54 ± 1.7
LSGLRNVLPLLTMYASIMKV	0.688 ± 0.7
LSHLLMRCGCIRLFVISMRE	0.448 ± 0.49
LSIGFGNPVAS	-0.312 ± 0.29
LSIILRNVMCNIFSSNLITH	0.973 ± 0.16
LSILSGWNTE	0.146 ± 0.32
LSKGRATVYF	2.06 ± 0.23
